Data on five molecules can be found in patent publication EP4714976A1 (Sunshine Lake Pharma Co., Ltd., dated 2026).

First the molecules themselves.
T1: FGFR4 (acro) (UniProt P22455 22-369)
T1 sequence (looked up): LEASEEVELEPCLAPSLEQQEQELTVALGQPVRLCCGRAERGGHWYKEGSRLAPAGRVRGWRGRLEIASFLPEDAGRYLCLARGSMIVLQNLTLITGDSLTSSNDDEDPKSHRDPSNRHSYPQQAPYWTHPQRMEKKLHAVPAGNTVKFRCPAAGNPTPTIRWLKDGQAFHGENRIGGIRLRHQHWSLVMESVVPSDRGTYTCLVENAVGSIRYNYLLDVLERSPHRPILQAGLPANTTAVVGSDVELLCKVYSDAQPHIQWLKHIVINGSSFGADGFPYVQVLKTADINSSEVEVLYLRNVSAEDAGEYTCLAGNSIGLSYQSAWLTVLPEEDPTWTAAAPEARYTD

B1: 1B8 scFv-Fc (Fc fusion)
chain: QIQLQQSGAELVKPGASVKMSCKASGYTFASYNLHWVKQTPGQGLEWIGLIYPENGDTSYNQKFKGKATLTADTSSTTAYIQLSSLTSEDSAVYFCARGGFDYWGQGTSLTVSSGGGGSGGGGSGGGGSDIKMTQSPASLSASVGETVTITCGASENIYGALNWYQRKQGKSPQLLIYGATNLADGMSSRFSGSGSGRQYSLKISSLHPDDVATYYCQNVLSTPYTFGGGTKLEIKESKYGPPCPPCPAPEAAGGPSVFLFPPKPKDTLMISRTPEVTCVVVDVSQEDPEVQFNWYVDGVEVHNAKTKPREEQFNSTYRVVSVLTVLHQDWLNGKEYKCKVSNKGLPSSIEKTISKAKGQPREPQVYTLPPSQEEMTKNQVSLTCLVKGFYPSDIAVEWESNGQPENNYKTTPPVLDSDGSFFLYSKLTVDKSRWQEGNVFSCSVMHEALHNHYTQKSLSLSLG
notes: scFv-Fc dimer
B2: 3E1 scFv-Fc (Fc fusion)
chain: QVQLQQPGAEVVKPGASVKMSCKASGYTFTDYYIHWVKQTPGQGLEWIGAIYPDNGDTSYNQKFKVKATLTADKSSSTAYMQLSSLTSEDSAVYYCARAFTYWGQGTLVTVSAGGGGSGGGGSGGGGSDILITQSPASLSASVGETVTITCGASENIYGALNWYQRKQGKSPQLLIYGATNLADGMSSRFSGSGSGRQYSLKISSLHPDDVATYYCQNVLSTPYTFGGGTKLEIKESKYGPPCPPCPAPEAAGGPSVFLFPPKPKDTLMISRTPEVTCVVVDVSQEDPEVQFNWYVDGVEVHNAKTKPREEQFNSTYRVVSVLTVLHQDWLNGKEYKCKVSNKGLPSSIEKTISKAKGQPREPQVYTLPPSQEEMTKNQVSLTCLVKGFYPSDIAVEWESNGQPENNYKTTPPVLDSDGSFFLYSKLTVDKSRWQEGNVFSCSVMHEALHNHYTQKSLSLSLG
notes: scFv-Fc dimer
B3: 3C7 scFv-Fc (Fc fusion)
chain: EIQLQQSGAELVKPGASVKMSCKASGYIFRNYYIHWVKRTPGQGLEWIGAIYPDNGDTSYNQRFKVKATLTADTSSSTAYMQLSSLTSEDSAVYYCARAFTYWGQGTTLTVSSGGGGSGGGGSGGGGSDIQMIQSPASLSASVGETVTITCGASENIYGALNWYQRKQGKSPQLLIYGATNLADGMSSRFSGSGSGRQYSLKISSLHPDDVATYYCQNVLSTPYTFGGGTKLEIKESKYGPPCPPCPAPEAAGGPSVFLFPPKPKDTLMISRTPEVTCVVVDVSQEDPEVQFNWYVDGVEVHNAKTKPREEQFNSTYRVVSVLTVLHQDWLNGKEYKCKVSNKGLPSSIEKTISKAKGQPREPQVYTLPPSQEEMTKNQVSLTCLVKGFYPSDIAVEWESNGQPENNYKTTPPVLDSDGSFFLYSKLTVDKSRWQEGNVFSCSVMHEALHNHYTQKSLSLSLG
notes: scFv-Fc dimer
B4: 3E2 scFv-Fc (Fc fusion)
chain: EIQLQQSGAELVKPGASVKMSCKASGYTFSFYNMHWVKRTPGQGLEWIGLIYPDNGDTSYNQKFKGKATLTADTSSSTAYMQLSSLTSEDSAVYYCARGGLDYWGQGTSLTVSSGGGGSGGGGSGGGGSNIVMTQSQKFMSTSVGDRVSVTCKASQNVGTNVAWYQQKPGQSPKALIYSASYRYTGVPDRFTGSGSGTDFTFTISSVQAEDLAVYYCQQHYSTPYTFGGGTKLEIKESKYGPPCPPCPAPEAAGGPSVFLFPPKPKDTLMISRTPEVTCVVVDVSQEDPEVQFNWYVDGVEVHNAKTKPREEQFNSTYRVVSVLTVLHQDWLNGKEYKCKVSNKGLPSSIEKTISKAKGQPREPQVYTLPPSQEEMTKNQVSLTCLVKGFYPSDIAVEWESNGQPENNYKTTPPVLDSDGSFFLYSKLTVDKSRWQEGNVFSCSVMHEALHNHYTQKSLSLSLG
notes: scFv-Fc dimer
B5: 3F11 scFv-Fc (Fc fusion)
chain: QVQLQQSGAELVKPGASVKMSCKASGYTFAPYNIHWVRQTPGQGLEWIGLIYPDNGDTSYNQKFKAKATLTADKSSSTAYMQLSSLTSEDSAVYYCARGGFDYWGQGTSLTVSSGGGGSGGGGSGGGGSDIVMTQSQKFMSTSVGDRVSVTCKASQNVGTNVAWYQQKPGQSPKALIYSASYRYSGVPDRFTGSGSGTDFTLTISNVQSEDLAEYFCQQHYSTPFTFGSGTKLEIKESKYGPPCPPCPAPEAAGGPSVFLFPPKPKDTLMISRTPEVTCVVVDVSQEDPEVQFNWYVDGVEVHNAKTKPREEQFNSTYRVVSVLTVLHQDWLNGKEYKCKVSNKGLPSSIEKTISKAKGQPREPQVYTLPPSQEEMTKNQVSLTCLVKGFYPSDIAVEWESNGQPENNYKTTPPVLDSDGSFFLYSKLTVDKSRWQEGNVFSCSVMHEALHNHYTQKSLSLSLG
notes: scFv-Fc dimer

In one assay the target is T2, FGFR2c (acro) (UniProt P21802 22-377). Briefly: ELISA.
T2 sequence (P21802 22-377): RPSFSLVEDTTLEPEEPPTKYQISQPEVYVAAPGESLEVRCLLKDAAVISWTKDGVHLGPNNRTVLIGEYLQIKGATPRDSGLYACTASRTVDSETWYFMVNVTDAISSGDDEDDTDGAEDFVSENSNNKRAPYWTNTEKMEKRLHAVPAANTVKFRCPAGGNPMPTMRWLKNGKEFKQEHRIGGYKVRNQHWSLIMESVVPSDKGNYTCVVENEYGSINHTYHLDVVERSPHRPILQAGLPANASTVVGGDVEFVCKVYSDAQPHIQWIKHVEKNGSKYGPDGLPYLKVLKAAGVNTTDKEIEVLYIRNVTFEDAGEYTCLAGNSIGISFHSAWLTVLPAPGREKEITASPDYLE
As to B1, the binding result is on record as “no binding (tested: 10 µg/mL)”.

B2: the binding result is on record as “no binding (tested: 10 µg/mL)”.

In the case of B3, the binding result is “no binding (tested: 10 µg/mL)”.

For B4, the binding result is listed as “no binding (tested: 10 µg/mL)”.

For the molecule B5, the binding result is “no binding (tested: 10 µg/mL)”.

The next assay concerns the target T1, FGFR4 (acro). The assay can be described thus: ELISA.
Regarding B1, the binding result is on record as “no binding (tested: 10 µg/mL)”.

B2: the binding result is listed as “no binding (tested: 10 µg/mL)”.

For the molecule B3, the binding result is “no binding (tested: 10 µg/mL)”.

As to B4, the binding result is “no binding (tested: 10 µg/mL)”.

On to B5, for which the binding result is “no binding (tested: 10 µg/mL)”.

The next assay has as its target T3, recombinant cynomolgus monkey FGFR2b (cynomolgus monkey).
T3 construct: extracellular domain; bought; also called cynomolgus macaque FGFR2b
The assay can be described thus: ELISA, antibody 1ug/mL.
Regarding B1, the “OD (450 nm) value” came out at 3.25.

For B2, the “OD (450 nm) value” was 3.34.

On to B3, for which the “OD (450 nm) value” stood at 3.19.

For B4, the “OD (450 nm) value” was found to be 3.35.

Take B5: the “OD (450 nm) value” was determined as 3.14.

The target of a further assay is T2, FGFR2c (acro). The assay can be described thus: ELISA, antibody 10 µg/mL.
B1: the “OD (450 nm) value” was 0.076.

B2: the “OD (450 nm) value” came out at 0.118.

B3: the “OD (450 nm) value” was found to be 0.091.

For B4, the “OD (450 nm) value” amounted to 0.138.

On to B5, for which the “OD (450 nm) value” stood at 0.086.

Another assay concerns the target T1, FGFR4 (acro). The assay can be described thus: ELISA, antibody 10 µg/mL.
B1: the “OD (450 nm) value” was found to be 0.171.

Turning to B2, the “OD (450 nm) value” turned out to be 0.096.

For the molecule B3, the “OD (450 nm) value” was 0.133.

For B4, the “OD (450 nm) value” came to 0.149.

B5: the “OD (450 nm) value” is 0.093.

The target of another assay is T4, human FGFR2b (Kaixia Biotechnology, catalog number FGR-HM1BB) (human, UniProt P21802-3 22-378).
T4 construct: extracellular domain; bought; also called hFGFR2b; human FGFR2b protein
T4 sequence (P21802 other isoform, or with tags, fused parts or gaps): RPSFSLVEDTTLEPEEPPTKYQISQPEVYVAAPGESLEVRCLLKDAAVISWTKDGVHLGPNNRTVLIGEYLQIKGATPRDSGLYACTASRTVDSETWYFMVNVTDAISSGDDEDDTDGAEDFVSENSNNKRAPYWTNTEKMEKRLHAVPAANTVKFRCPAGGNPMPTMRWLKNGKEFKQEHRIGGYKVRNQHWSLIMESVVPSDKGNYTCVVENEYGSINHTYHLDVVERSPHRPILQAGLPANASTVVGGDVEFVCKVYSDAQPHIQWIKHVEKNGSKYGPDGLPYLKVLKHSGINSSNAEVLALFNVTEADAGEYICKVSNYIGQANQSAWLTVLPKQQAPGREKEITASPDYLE
The assay can be described thus: BLI, antibody on AHC2 sensor.
In turn, B1 displayed a Kd of 13.3 nM, a koff of 0.00629 s⁻¹ and a kon of 472000 M⁻¹ s⁻¹.

B2 gave a dissociation constant Kd of 4.5 nM, a koff of 0.00152 s⁻¹ and a kon of 337000 M⁻¹ s⁻¹.

Molecule B3 had a Kd of 3.99 nM, a koff of 0.00114 s⁻¹ and a kon of 287000 M⁻¹ s⁻¹.

Consider B4, for which the Kd worked out at 4.45 nM, the koff came to 0.0011 s⁻¹ and the kon worked out at 247000 M⁻¹ s⁻¹.

Consider B5, for which the Kd worked out at 6.13 nM, the koff came to 0.00203 s⁻¹ and the kon came to 331000 M⁻¹ s⁻¹.

The target of the next assay is T5, FGFR2b on KATO III cells (human, UniProt P21802-3 22-822).
T5 construct: whole, on cells; also called KATO III cells that overexpress FGFR2b
T5 sequence (P21802 other isoform, or with tags, fused parts or gaps): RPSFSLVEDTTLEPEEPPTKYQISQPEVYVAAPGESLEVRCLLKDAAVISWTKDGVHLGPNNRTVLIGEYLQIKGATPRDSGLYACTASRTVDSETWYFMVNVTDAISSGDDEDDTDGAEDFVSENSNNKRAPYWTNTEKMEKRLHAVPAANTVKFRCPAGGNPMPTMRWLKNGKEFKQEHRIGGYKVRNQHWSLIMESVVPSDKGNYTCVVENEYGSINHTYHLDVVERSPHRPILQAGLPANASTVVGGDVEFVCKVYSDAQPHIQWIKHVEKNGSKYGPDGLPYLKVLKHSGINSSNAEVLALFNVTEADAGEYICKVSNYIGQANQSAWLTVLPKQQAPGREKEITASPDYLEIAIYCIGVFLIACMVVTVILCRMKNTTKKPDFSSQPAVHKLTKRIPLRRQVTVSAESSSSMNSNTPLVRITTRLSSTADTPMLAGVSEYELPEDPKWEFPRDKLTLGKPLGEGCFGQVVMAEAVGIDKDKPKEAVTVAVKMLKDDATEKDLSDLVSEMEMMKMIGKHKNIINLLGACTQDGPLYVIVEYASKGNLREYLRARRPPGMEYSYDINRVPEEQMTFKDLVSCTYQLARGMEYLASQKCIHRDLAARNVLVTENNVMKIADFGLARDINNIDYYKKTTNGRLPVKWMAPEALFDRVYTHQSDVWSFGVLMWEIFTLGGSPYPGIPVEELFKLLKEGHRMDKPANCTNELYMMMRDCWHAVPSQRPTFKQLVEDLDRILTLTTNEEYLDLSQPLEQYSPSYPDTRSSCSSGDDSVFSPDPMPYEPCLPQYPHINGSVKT
Briefly: flow cytometry, KATO III cells.
For the molecule B1, the response was half-maximal at 0.133 µg/mL (EC50).

In turn, B2 gave an EC50 of 0.132 µg/mL.

As to B3, it took 0.2 µg/mL to reach a half-maximal effect (EC50).

Turning to B4, the EC50 amounted to 0.236 µg/mL.

B5 came in with an EC50 of 0.164 µg/mL.

A further assay deals with T4, human FGFR2b (Kaixia Biotechnology, …). Briefly: ELISA, FGFR2b coated at 1 µg/ml.
As to B1, the EC50 came to 0.0273 µg/mL.

Molecule B2 came in with an EC50 of 0.0156 µg/mL.

B3 gave an EC50 of 0.0166 µg/mL.

As to B4, it took 0.0235 µg/mL to reach a half-maximal effect (EC50).

With B5, the EC50 worked out at 0.0156 µg/mL.
